From paper PMC10641528, “A conserved, noncanonical insert in FIS1 mediates TBC1D15 and DRP1 recruitment for mitochondrial fission” (The Journal of Biological Chemistry, 2023) come the findings set out here.

Numbering of substitutions follows the chain as printed. Numbers in names are those of the source.

First the molecules themselves.
B1: Mitochondrial fission protein 1 (FIS1), wildtype, ectopically expressed from pcDNA-FIS1 WT (natural protein, human)
chain: MEAVLNELVSVEDLLKFEKKFQSEKAAGSVSKSTQFEYAWCLVRSKYNDDIRKGIVLLEELLPKGSKEEQRDYVFYLAVGNYRLKEYEKALKYVRGLLQTEPQNNQAKELERLIDKAMKKDGLVGMAIVGGMALGVAGLAGLIGL
notes: human mitochondrial fission protein 1 (FIS1), wildtype, expressed from pcDNA; No tag is mentioned; detected with an anti-FIS1 antibody; also called WT FIS1; source: HCT116, transfected, in lysate (PFA cross-linked cells)
B2: FIS1 D49G variant (natural protein, human)
chain: B1 chain with D49G
notes: human FIS1 that keeps the SKY insert, with D49 replaced by Gly, expressed from pcDNA; source: HCT116, transfected, in lysate (PFA cross-linked cells)
B3: FIS1 AAA variant (SKY insert substituted with three alanines) (natural protein, human)
chain: B1 chain with S45A, K46A, Y47A
notes: human FIS1 with S45, K46, Y47 replaced by three Ala, expressed from pcDNA; also called AAA FIS1 variant; source: HCT116, transfected, in lysate (PFA cross-linked cells)
B4: FIS1 ΔSKY variant (SKY insert deleted) (natural protein, human)
chain: MEAVLNELVSVEDLLKFEKKFQSEKAAGSVSKSTQFEYAWCLVRNDDIRKGIVLLEELLPKGSKEEQRDYVFYLAVGNYRLKEYEKALKYVRGLLQTEPQNNQAKELERLIDKAMKKDGLVGMAIVGGMALGVAGLAGLIGL
notes: human FIS1 with S45, K46, Y47 deleted, expressed from pcDNA; source: HCT116, transfected, in lysate (PFA cross-linked cells)
B5: FIS1 ΔSKYD49G variant (SKY insert deleted, D49 replaced by Gly) (natural protein, human)
chain: B4 chain with D46G
notes: human FIS1 with S45, K46, Y47 deleted and D49 replaced by Gly (wildtype numbering), expressed from pcDNA; source: HCT116, transfected, in lysate (PFA cross-linked cells)

The target of the first experiment is DRP1, endogenous (dynamin family GTPase) (human (endogenous in HCT116)) (UniProt O00429). The experiment can be described thus: co-IP; endogenous DRP1 immunoprecipitated (mouse monoclonal sc-271583 on protein A/G beads) from lysates of HCT116 cells transfected with pcDNA or pcDNA-FIS1 variants and cross-linked with 0.25% PFA; FIS1 blotted; scored as ratio of immunoprecipitated to input FIS1; lysis buffer 10 mM Tris/Cl pH 7.5, 150 mM NaCl, 0.5 mM EDTA, 0.5% NP-40 substitute.
Sequence of DRP1, endogenous (dynamin family GTPase) (human (endogenous in HCT116)) (O00429 whole entry): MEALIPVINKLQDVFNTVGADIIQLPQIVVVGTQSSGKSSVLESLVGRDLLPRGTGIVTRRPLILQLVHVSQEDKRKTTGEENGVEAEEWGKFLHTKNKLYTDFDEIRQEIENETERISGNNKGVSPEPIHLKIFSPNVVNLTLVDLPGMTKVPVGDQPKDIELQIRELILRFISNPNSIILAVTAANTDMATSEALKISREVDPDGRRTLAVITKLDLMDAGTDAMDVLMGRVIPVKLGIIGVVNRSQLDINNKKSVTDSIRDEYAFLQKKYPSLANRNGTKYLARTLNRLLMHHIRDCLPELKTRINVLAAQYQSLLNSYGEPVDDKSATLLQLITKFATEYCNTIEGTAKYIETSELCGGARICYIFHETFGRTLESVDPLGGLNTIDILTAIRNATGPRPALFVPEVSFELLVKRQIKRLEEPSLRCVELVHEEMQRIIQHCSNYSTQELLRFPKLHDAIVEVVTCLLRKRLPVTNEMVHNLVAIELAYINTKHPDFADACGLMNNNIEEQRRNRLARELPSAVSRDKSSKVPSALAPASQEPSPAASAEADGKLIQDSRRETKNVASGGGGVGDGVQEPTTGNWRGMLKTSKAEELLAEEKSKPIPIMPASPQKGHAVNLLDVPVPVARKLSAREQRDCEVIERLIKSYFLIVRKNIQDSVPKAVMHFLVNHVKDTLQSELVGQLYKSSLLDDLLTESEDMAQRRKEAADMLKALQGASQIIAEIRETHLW
Conditions: not given
With “FIS1 5LA variant (five conserved TPR Leu residues replaced with Ala) (from UniProt Q9Y3D6 1-145) (natural protein)”, the ratio of immunoprecipitated to input FIS1 turned out to be 3.9.

In the next experiment the target is T1, DRP1, endogenous (dynamin family GTPase) (human (endogenous in HCT116), UniProt O00429 1-736).
T1 construct: DRP1 endogenous in HCT116 cells; Immunoprecipitated with mouse monoclonal DRP1 antibody sc-271583; source: endogenous, HCT116 lysate (PFA cross-linked cells)
T1 sequence (O00429 whole entry): as above
The experiment is described as above. Particulars: partners not purified.
B1: the “ratio of immunoprecipitated to input FIS1” value (“ratio of immunoprecipitated” below) turned out to be 0.7 ± 0.1.
Consider B2, for which the “ratio of immunoprecipitated” value was determined as 0.7 ± 0.3.
Regarding B3, the “ratio of immunoprecipitated” value worked out at 0.9 ± 0.1.
As for B4, the “ratio of immunoprecipitated” value turned out to be 1.3 ± 0.9.
On to B5, for which the “ratio of immunoprecipitated” value came to 0.9 ± 0.2.
